Measured values: PMC4105704 (Cell, 2014)

Legend:
[1] = molecular target: Hermes79-612 C519S (Musca domestica); assay: crystal structure
[2] = molecular target: HermesΔ497-516 (Musca domestica)
[3] = molecular target: full-length Hermes expressed in Sf9 cells (Musca domestica); assay: SEC
[4] = molecular target: full-length Hermes expressed in budding yeast (Musca domestica); assay: SEC
SEC = molecular target: the molecule itself; assay: SEC

Hermes79-612 C519S (domain or fragment)
stoichiometry N [1]: 8

HermesΔ497-516 (enzyme)
stoichiometry N [2]: 2

full-length Hermes expressed in Sf9 cells (enzyme)
stoichiometry N [3]: 8

full-length Hermes expressed in budding yeast (enzyme)
stoichiometry N [4]: 8

B1: full-length Hermes transposase (E. coli-expressed) (enzyme, Musca domestica, UniProt Q25438 1-612, looked up)
chain: MQKMDNLEVKAKINQGLYKITPRHKGTSFIWNVLADIQKEDDTLVEGWVFCRKCEKVLKYTTRQTSNLCRHKCCASLKQSRELKTVSADCKKEAIEKCAQWVVRDCRPFSAVSGSGFIDMIKFFIKVKAEYGEHVNVEELLPSPITLSRKVTSDAKEKKALISREIKSAVEKDGASATIDLWTDNYIKRNFLGVTLHYHENNELRDLILGLKSLDFERSTAENIYKKLKAIFSQFNVEDLSSIKFVTDRGANVVKSLANNIRINCSSHLLSNVLENSFEETPELNMPILACKNIVKYFKKANLQHRLRSSLKSECPTRWNSTYTMLRSILDNWESVIQILSEAGETQRIVHINKSIIQTMVNILDGFERIFKELQTCSSPSLCFVVPSILKVKEICSPDVGDVADIAKLKVNIIKNVRIIWEENLSIWHYTAFFFYPPALHMQQEKVAQIKEFCLSKMEDLELINRMSSFNELSATQLNQSDSNSHNSIDLTSHSKDISTTSFFFPQLTQNNSREPPVCPSDEFEFYRKEIVILSEDFKVMEWWNLNSKKYPKLSKLALSLLSIPASSAASERTFSLAGNIITEKRNRIGQQTVDSLLFLNSFYKNFCKLDI
stoichiometry N (SEC): 8
